Reference: the supplement of paper PMC9112550, “Optimization of the antimicrobial peptide Bac7 by deep mutational scanning” (BMC Biology, 2022)

What follows are sequences tested on Escherichia coli TOP10 (assay: shrunken log2 fold change of peptide-encoding DNA abundance (4.5 h post-induction vs induction); higher = less antimicrobial activity (less host growth inhibition)). Conditions: time post-induction: 4.5 h; library: site-saturation at positions 5, 18, 19, 20.
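Note: peptides expressed intracellularly from a pBAD plasmid library in pooled LB shake-flask culture, induced with 0.3% L-arabinose, DNA abundance read by NGS, three biological replicates, DESeq2 with apeglm shrinkage.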

Q: RRIRMRPPRLPRPRPRPQRYPRP was tested. Which “shrunken log2 fold change” value did it give?
A: -0.00185

Q: For RRIRGRPPRLPRPRPRPMKHPRP, which “shrunken log2 fold change” value is on record?
A: 0.0417

Q: For RRIRHRPPRLPRPRPRPFHRPRP, which “shrunken log2 fold change” value is on record?
A: 0.00911

Q: With RRIRPRPPRLPRPRPRPTCHPRP as the sequence, how does the “shrunken log2 fold change” value read?
A: 1.02

Q: RRIRARPPRLPRPRPRPVKCPRP was tested. Which “shrunken log2 fold change” value did it give?
A: 0.03

Q: How did the “shrunken log2 fold change” value turn out when RRIRHRPPRLPRPRPRPMVHPRP was run?
A: 0.00748

Q: Which “shrunken log2 fold change” value does the source give for RRIRMRPPRLPRPRPRPFTTPRP here?
A: -0.0216

Q: How did the “shrunken log2 fold change” value turn out when RRIRQRPPRLPRPRPRPQWSPRP was run?
A: 0.282

Q: For RRIRRRPPRLPRPRPRPWMNPRP, which “shrunken log2 fold change” value is on record?
A: -0.0882

Q: With RRIRFRPPRLPRPRPRPNPRPRP as the sequence, how does the “shrunken log2 fold change” value read?
A: 0.427

Q: For RRIRGRPPRLPRPRPRPWAQPRP, which “shrunken log2 fold change” value is on record?
A: -0.035

Q: How did the “shrunken log2 fold change” value turn out when RRIRRRPPRLPRPRPRPAHRPRP was run?
A: -0.059

Q: Which “shrunken log2 fold change” value does the source give for RRIRRRPPRLPRPRPRPECLPRP here?
A: 0.635

Q: Which “shrunken log2 fold change” value does the source give for RRIRPRPPRLPRPRPRPGFAPRP here?
A: 0.318

Q: With RRIRHRPPRLPRPRPRPPAMPRP as the sequence, how does the “shrunken log2 fold change” value read?
A: 0.0064

Q: Which “shrunken log2 fold change” value does the source give for RRIRWRPPRLPRPRPRPAPFPRP here?
A: 0.0259

Q: Which “shrunken log2 fold change” value does the source give for RRIRGRPPRLPRPRPRPIASPRP here?
A: 0.524

Q: Which “shrunken log2 fold change” value does the source give for RRIRQRPPRLPRPRPRPYDLPRP here?
A: -0.0546

Q: How did the “shrunken log2 fold change” value turn out when RRIRNRPPRLPRPRPRPKNVPRP was run?
A: -0.267

Q: Which “shrunken log2 fold change” value does the source give for RRIRGRPPRLPRPRPRPYPFPRP here?
A: -0.164

Q: RRIRGRPPRLPRPRPRPGSFPRP was tested. Which “shrunken log2 fold change” value did it give?
A: 0.286

Q: With RRIRFRPPRLPRPRPRPASKPRP as the sequence, how does the “shrunken log2 fold change” value read?
A: 0.0916

Q: With RRIRGRPPRLPRPRPRPKKYPRP as the sequence, how does the “shrunken log2 fold change” value read?
A: 0.119

Q: With RRIRQRPPRLPRPRPRPCVVPRP as the sequence, how does the “shrunken log2 fold change” value read?
A: 0.0959

Q: RRIRIRPPRLPRPRPRPSVGPRP was tested. Which “shrunken log2 fold change” value did it give?
A: -0.261

Q: With RRIRGRPPRLPRPRPRPQSQPRP as the sequence, how does the “shrunken log2 fold change” value read?
A: 0.139

Q: Which “shrunken log2 fold change” value does the source give for RRIRSRPPRLPRPRPRPPYHPRP here?
A: -0.584

Q: RRIRDRPPRLPRPRPRPVEFPRP was tested. Which “shrunken log2 fold change” value did it give?
A: -0.0374

Q: How did the “shrunken log2 fold change” value turn out when RRIRARPPRLPRPRPRPNEEPRP was run?
A: 0.276

Q: For RRIRLRPPRLPRPRPRPVFTPRP, which “shrunken log2 fold change” value is on record?
A: -0.135

Q: With RRIRNRPPRLPRPRPRPQNEPRP as the sequence, how does the “shrunken log2 fold change” value read?
A: -0.331

Q: How did the “shrunken log2 fold change” value turn out when RRIRHRPPRLPRPRPRPHFDPRP was run?
A: -0.107

Q: With RRIRERPPRLPRPRPRPISRPRP as the sequence, how does the “shrunken log2 fold change” value read?
A: -0.0122

Q: Which “shrunken log2 fold change” value does the source give for RRIRGRPPRLPRPRPRPWAFPRP here?
A: 0.488

Q: How did the “shrunken log2 fold change” value turn out when RRIRVRPPRLPRPRPRPGFWPRP was run?
A: 0.587

Q: How did the “shrunken log2 fold change” value turn out when RRIRHRPPRLPRPRPRPVDTPRP was run?
A: -0.508

Q: Which “shrunken log2 fold change” value does the source give for RRIRGRPPRLPRPRPRPPGNPRP here?
A: 0.432

Q: How did the “shrunken log2 fold change” value turn out when RRIRIRPPRLPRPRPRPDAYPRP was run?
A: -0.0729

Q: RRIRQRPPRLPRPRPRPWHGPRP was tested. Which “shrunken log2 fold change” value did it give?
A: 0.0373

Q: How did the “shrunken log2 fold change” value turn out when RRIRTRPPRLPRPRPRPEFSPRP was run?
A: 0.00789

Q: RRIRARPPRLPRPRPRPAAIPRP was tested. Which “shrunken log2 fold change” value did it give?
A: 0.845

Q: Which “shrunken log2 fold change” value does the source give for RRIRNRPPRLPRPRPRPKQSPRP here?
A: -0.135

Q: With RRIRKRPPRLPRPRPRPEPVPRP as the sequence, how does the “shrunken log2 fold change” value read?
A: 0.0885

Q: Which “shrunken log2 fold change” value does the source give for RRIRGRPPRLPRPRPRPSTFPRP here?
A: 0.112

Q: Which “shrunken log2 fold change” value does the source give for RRIRSRPPRLPRPRPRPEDRPRP here?
A: 0.972

Q: RRIRERPPRLPRPRPRPFIKPRP was tested. Which “shrunken log2 fold change” value did it give?
A: -0.16

Q: How did the “shrunken log2 fold change” value turn out when RRIRGRPPRLPRPRPRPYCMPRP was run?
A: -0.148

Q: With RRIRDRPPRLPRPRPRPIVYPRP as the sequence, how does the “shrunken log2 fold change” value read?
A: -0.0329

Q: Which “shrunken log2 fold change” value does the source give for RRIRWRPPRLPRPRPRPGEQPRP here?
A: 0.0722

Q: How did the “shrunken log2 fold change” value turn out when RRIRTRPPRLPRPRPRPTREPRP was run?
A: -0.157

Q: Which “shrunken log2 fold change” value does the source give for RRIRKRPPRLPRPRPRPTSVPRP here?
A: 0.0245

Q: RRIRIRPPRLPRPRPRPNFTPRP was tested. Which “shrunken log2 fold change” value did it give?
A: -0.545

Q: With RRIRSRPPRLPRPRPRPNNKPRP as the sequence, how does the “shrunken log2 fold change” value read?
A: -0.559

Q: How did the “shrunken log2 fold change” value turn out when RRIRKRPPRLPRPRPRPNDWPRP was run?
A: 0.455

Q: RRIRLRPPRLPRPRPRPRNMPRP was tested. Which “shrunken log2 fold change” value did it give?
A: -0.0899

Q: How did the “shrunken log2 fold change” value turn out when RRIRERPPRLPRPRPRPHNWPRP was run?
A: -0.363

Q: How did the “shrunken log2 fold change” value turn out when RRIRARPPRLPRPRPRPWAKPRP was run?
A: 0.334

Q: How did the “shrunken log2 fold change” value turn out when RRIRFRPPRLPRPRPRPNKIPRP was run?
A: -0.538

Q: How did the “shrunken log2 fold change” value turn out when RRIRQRPPRLPRPRPRPTDWPRP was run?
A: 0.0907

Q: RRIRNRPPRLPRPRPRPTGMPRP was tested. Which “shrunken log2 fold change” value did it give?
A: 0.236

Q: For RRIRQRPPRLPRPRPRPPLPPRP, which “shrunken log2 fold change” value is on record?
A: 0.424

Q: With RRIRWRPPRLPRPRPRPPRKPRP as the sequence, how does the “shrunken log2 fold change” value read?
A: 0.731

Q: RRIRVRPPRLPRPRPRPNWNPRP was tested. Which “shrunken log2 fold change” value did it give?
A: -0.318

Q: RRIRLRPPRLPRPRPRPSKNPRP was tested. Which “shrunken log2 fold change” value did it give?
A: -0.296

Q: Which “shrunken log2 fold change” value does the source give for RRIRYRPPRLPRPRPRPANQPRP here?
A: -0.131

Q: How did the “shrunken log2 fold change” value turn out when RRIRIRPPRLPRPRPRPWWTPRP was run?
A: -0.0807

Q: Which “shrunken log2 fold change” value does the source give for RRIRMRPPRLPRPRPRPQIRPRP here?
A: -0.0442

Q: With RRIRERPPRLPRPRPRPCVEPRP as the sequence, how does the “shrunken log2 fold change” value read?
A: -0.11

Q: Which “shrunken log2 fold change” value does the source give for RRIRKRPPRLPRPRPRPTCLPRP here?
A: 0.0518

Q: For RRIRFRPPRLPRPRPRPFPPPRP, which “shrunken log2 fold change” value is on record?
A: -0.123

Q: For RRIRQRPPRLPRPRPRPMRCPRP, which “shrunken log2 fold change” value is on record?
A: 0.054

Q: With RRIRPRPPRLPRPRPRPPPWPRP as the sequence, how does the “shrunken log2 fold change” value read?
A: 0.588

Q: Which “shrunken log2 fold change” value does the source give for RRIRERPPRLPRPRPRPMDWPRP here?
A: 0.0151

Q: For RRIRVRPPRLPRPRPRPCHWPRP, which “shrunken log2 fold change” value is on record?
A: 0.169

Q: How did the “shrunken log2 fold change” value turn out when RRIRPRPPRLPRPRPRPVQQPRP was run?
A: 0.378
